Data on one molecule can be found in patent US20190153097A1 (AGENCY FOR SCIENCE TECHNOLOGY AND RESEARCH, published 2019).

For this assay, the target named is T1, human CTLA-4 (human, UniProt P16410 36-161, limits assumed).
T1 construct: Soluble protein, construct not described; also called huCTLA-4; CD152
The assay can be described thus: blocking ELISA: CD80 coated, antibody pre-incubated with human CTLA-4, binding of CTLA-4 to CD80 detected. Background: In an ELISA, binding on a coated surface is turned into a signal by an enzyme label.

T1 sequence (P16410 36-161 limits assumed): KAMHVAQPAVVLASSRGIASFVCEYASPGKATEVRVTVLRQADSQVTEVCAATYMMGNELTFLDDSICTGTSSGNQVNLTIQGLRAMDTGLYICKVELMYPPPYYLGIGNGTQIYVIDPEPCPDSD

B1: L3D10 (commercial mouse anti-human CTLA-4 IgG1) (antibody, V domains shown)
VH: QVQLKESGPGLVAPSQSLSITCTVSGFSLTSYGLSWVRQPPGKGLEWLGVIWYDGNTNFHSALISRLTISKDNSKSQVFLELNSLQTDDTATYYCAKTEGHYYGSNYGYYALDYWGQGTSVTVSS
VL: DIQMTQSPASLSVSVGETVTITCRASENIYSNLAWYQQKQGKSPQLLVYAATNLADGVPSRFSGSGSGTQYSLKINSLQSEDFGTYFCQHLWGTPYTFGGGTKLEIK
In the case of B1, the “IC50 (read off the curve)” value is about 2 nM.
